Reference: US7057015B1, “Hormone receptor functional dimers and methods of their use” (The Salk Institute for Biological Studies, priority 1999, dated 2006)

Tests used:
[1] = target: T1, Drosophila melanogaster ecdysone receptor (monomeric) (Drosophila melanogaster, UniProt P34021 1-878); experiment: gel mobility shift on 32P-labelled EcRE probe, proteins translated in vitro
T1 construct: also called EcR; dmEcR
T1 sequence (looked up): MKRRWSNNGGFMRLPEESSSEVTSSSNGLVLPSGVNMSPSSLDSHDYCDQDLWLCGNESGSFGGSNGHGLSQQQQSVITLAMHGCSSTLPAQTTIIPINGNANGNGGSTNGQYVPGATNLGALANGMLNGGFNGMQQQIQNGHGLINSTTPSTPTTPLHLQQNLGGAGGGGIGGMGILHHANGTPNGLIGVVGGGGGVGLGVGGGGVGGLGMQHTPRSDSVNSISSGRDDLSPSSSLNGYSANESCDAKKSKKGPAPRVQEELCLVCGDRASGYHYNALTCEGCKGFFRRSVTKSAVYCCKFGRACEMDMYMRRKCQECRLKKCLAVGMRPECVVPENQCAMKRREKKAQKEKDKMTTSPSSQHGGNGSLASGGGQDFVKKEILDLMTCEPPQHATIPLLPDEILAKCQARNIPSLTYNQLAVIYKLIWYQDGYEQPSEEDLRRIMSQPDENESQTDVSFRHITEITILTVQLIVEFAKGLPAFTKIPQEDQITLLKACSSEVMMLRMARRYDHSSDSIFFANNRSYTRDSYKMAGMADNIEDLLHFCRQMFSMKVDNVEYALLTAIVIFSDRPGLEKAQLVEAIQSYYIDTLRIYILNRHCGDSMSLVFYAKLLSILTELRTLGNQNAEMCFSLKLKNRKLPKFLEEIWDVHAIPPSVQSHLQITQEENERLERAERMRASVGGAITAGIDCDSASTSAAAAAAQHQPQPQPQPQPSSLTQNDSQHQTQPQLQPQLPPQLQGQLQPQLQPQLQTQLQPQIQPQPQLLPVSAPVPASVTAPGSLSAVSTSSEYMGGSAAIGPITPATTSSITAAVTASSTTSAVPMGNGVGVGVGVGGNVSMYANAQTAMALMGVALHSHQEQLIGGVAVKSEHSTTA
Protocol: The reactions were allowed to proceed at 23° C. for 5 minutes at which time ligand or vehicle was added and the reaction allowed to continue for 20 additional minutes. Band volumes were quantified using laser scanning densitometry.

EcRE probe = experiment: Gel mobility shift analysis of EcRE probe binding by FDs; conditions: 1 μM murA vs vehicle, extracts of transfected 293 cells
Protocol: Preparation of the invention fusion protein FDs for gel shift analysis by transient transfection into 293 cells was as follows: 300 ng of individual receptor plasmids and 100 ng pCH110 internal control plasmid were cotransfected into 293 cells at 60% density in Costar 6-well plates. One well of each group was treated with 1 μM murA as ligand at the time of transfection. 40 hours later, extracts of transfected 293 cells were made by scraping the cells from a well into a low volume of phosphate buffered saline, pelleting the cells, resuspending them in 200 μl 5×gel shift buffer (Yao et al., supra 1992), and sonicating with a Kontes cell disrupter for three 10-sec. bursts at output level 30. The extracts were then centrifuged to clear the lysate and the protein was quantified. […]
Comparative gel mobility shift analyses of FDs with control in vitro translated receptor complexes were performed using double stranded EcRE probes and labeled by Klenow fill using ^32P-dCTP and cold dGAT by standard methods. […] Band volumes were quantified using laser scanning densitometry.
An autoradiogram of FDs and controls treated either with control vehicle or with 1 μM of murA as ligand was made with markers indicating endodimer FD or wild type receptor-binding complex band shifts. […] FIG. 2A is a graph that quantifies endodimer-sized band volumes obtained from the autoradiogram.

[2] = test system: E4-luc reporter plasmid in 293 cells; experiment: Transient transfection luciferase transactivation assay with E4-luc reporter; type: cell-based, human
Protocol: For quantitative transactivation analysis, transfections were performed in triplicate in 24-well plates by calcium-phosphate co-precipitation with 100 ng of an individual receptor, the reporter plasmid E4-luc, and pCH110 (SV40-β-galactosidase) as an internal control. Briefly, the reporter plasmid, E4-luc, was constructed of 4-tandem EcREs inserted upstream of a thymidine kinase gene minimal promoter directing luciferase expression. […] 1 μM ligand was added at the time of transfection, and the cells were harvested for luciferase assay 40 hours later. Harvested cell extracts were split, and one part was analyzed in a luminometer for luciferase activity and the other part was analyzed for β-galactosidase activity using an orthonitrophenyl galactoside assay by standard methods. Luciferase levels were normalized to β-galactosidase values to correct for slight differences in transfection efficiency.

B1: Drosophila melanogaster ultraspiracle protein (monomeric) (receptor, UniProt P20153 1-508, looked up)
chain: MDNCDQDASFRLSHIKEEVKPDISQLNDSNNSSFSPKAESPVPFMQAMSMVHVLPGSNSASSNNNSAGDAQMAQAPNSAGGSAAAAVQQQYPPNHPLSGSKHLCSICGDRASGKHYGVYSCEGCKGFFKRTVRKDLTYACRENRNCIIDKRQRNRCQYCRYQKCLTCGMKREAVQEERQRGARNAAGRLSASGGGSSGPGSVGGSSSQGGGGGGGVSGGMGSGNGSDDFMTNSVSRDFSIERIIEAEQRAETQCGDRALTFLRVGPYSTVQPDYKGAVSALCQVVNKQLFQMVEYARMMPHFAQVPLDDQVILLKAAWIELLIANVAWCSIVSLDDGGAGGGGGGLGHDGSFERRSPGLQPQQLFLNQSFSYHRNSAIKAGVSAIFDRILSELSVKMKRLNLDRRELSCLKAIILYNPDIRGIKSRAEIEMCREKVYACLDEHCRLEHPGDDGRFAQLLLRLPALRSISLKCQDHLFLFRITSDRPLEELFLEQLEAPPPPGLAMKLE
notes: also called Usp; dmUsp
- binding result [1]: binds

B2: E5U: fusion protein: Drosophila EcR at amino terminus, 5 linker segments (65 amino acids), ultraspiracle protein (protein)
chain: MKRRWSNNGGFMRLPEESSSEVTSSSNGLVLPSGVNMSPSSLDSHDYCDQDLWLCGNESGSFGGSNGHGLSQQQQSVITLAMHGCSSTLPAQTTIIPINGNANGNGGSTNGQYVPGATNLGALANGMLNGGFNGMQQQIQNGHGLINSTTPSTPTTPLHLQQNLGGAGGGGIGGMGILHHANGTPNGLIGVVGGGGGVGLGVGGGGVGGLGMQHTPRSDSVNSISSGRDDLSPSSSLNGYSANESCDAKKSKKGPAPRVQEELCLVCGDRASGYHYNALTCEGCKGFFRRSVTKSAVYCCKFGRACEMDMYMRRKCQECRLKKCLAVGMRPECVVPENQCAMKRREKKAQKEKDKMTTSPSSQHGGNGSLASGGGQDFVKKEILDLMTCEPPQHATIPLLPDEILAKCQARNIPSLTYNQLAVIYKLIWYQDGYEQPSEEDLRRIMSQPDENESQTDVSFRHITEITILTVQLIVEFAKGLPAFTKIPQEDQITLLKACSSEVMMLRMARRYDHSSDSIFFANNRSYTRDSYKMAGMADNIEDLLHFCRQMFSMKVDNVEYALLTAIVIFSDRPGLEKAQLVEAIQSYYIDTLRIYILNRHCGDSMSLVFYAKLLSILTELRTLGNQNAEMCFSLKLKNRKLPKFLEEIWDVHAIPPSVQSHLQITQEENERLERAERMRASVGGAITAGIDCDSASTSAAAAAAQHQPQPQPQPQPSSLTQNDSQHQTQPQLQPQLPPQLQGQLQPQLQPQLQTQLQPQIQPQPQLLPVSAPVPASVTAPGSLSAVSTSSEYMGGSAAIGPITPATTSSITAAVTASSTTSAVPMGNGVGVGVGVGGNVSMYANAQTAMALMGVALHSHQEQLIGGVAVKSEHSTTAGPTGPGPGGGSGGGSGTGPGGGSGGGSGTGPGGGSGGGSGTGPGGGSGGGSGTGPGGGSGGGSGTMDNCDQDASFRLSHIKEEVKPDISQLNDSNNSSFSPKAESPVPFMQAMSMVHVLPGSNSASSNNNSAGDAQMAQAPNSAGGSAAAAVQQQYPPNHPLSGSKHLCSICGDRASGKHYGVYSCEGCKGFFKRTVRKDLTYACRENRNCIIDKRQRNRCQYCRYQKCLTCGMKREAVQEERQRGARNAAGRLSASGGGSSGPGSVGGSSSQGGGGGGGVSGGMGSGNGSDDFMTNSVSRDFSIERIIEAEQRAETQCGDRALTFLRVGPYSTVQPDYKGAVSALCQVVNKQLFQMVEYARMMPHFAQVPLDDQVILLKAAWIELLIANVAWCSIVSLDDGGAGGGGGGLGHDGSFERRSPGLQPQQLFLNQSFSYHRNSAIKAGVSAIFDRILSELSVKMKRLNLDRRELSCLKAIILYNPDIRGIKSRAEIEMCREKVYACLDEHCRLEHPGDDGRFAQLLLRLPALRSISLKCQDHLFLFRITSDRPLEELFLEQLEAPPPPGLAMKLE
- relative-fold increase in response element binding (endodimer band) resulting from ligand treatment (EcRE probe): 0.9 fold
- Rel. Ind. = relative induction of individual receptor groups ([2]; +ligand (1 μM murA) versus −ligand): 1.6 fold
- +Lig/E4 = luciferase activity vs. reporter only with ligand ([2]; transiently co-transfected 293 cells, 1 μM murA, relative to E4-luc reporter only): 0.62
- −Lig/E4 = luciferase activity vs. reporter only without ligand ([2]; transiently co-transfected 293 cells, without ligand, relative to E4-luc reporter only): 0.41

B3: human retinoid X receptor alpha (monomeric) (receptor, UniProt P19793 1-462, looked up)
chain: MDTKHFLPLDFSTQVNSSLTSPTGRGSMAAPSLHPSLGPGIGSPGQLHSPISTLSSPINGMGPPFSVISSPMGPHSMSVPTTPTLGFSTGSPQLSSPMNPVSSSEDIKPPLGLNGVLKVPAHPSGNMASFTKHICAICGDRSSGKHYGVYSCEGCKGFFKRTVRKDLTYTCRDNKDCLIDKRQRNRCQYCRYQKCLAMGMKREAVQEERQRGKDRNENEVESTSSANEDMPVERILEAELAVEPKTETYVEANMGLNPSSPNDPVTNICQAADKQLFTLVEWAKRIPHFSELPLDDQVILLRAGWNELLIASFSHRSIAVKDGILLATGLHVHRNSAHSAGVGAIFDRVLTELVSKMRDMQMDKTELGCLRAIVLFNPDSKGLSNPAEVEALREKVYASLEAYCKHKYPEQPGRFAKLLLRLPALRSIGLKCLEHLFFFKLIGDTPIDTFLMEMLEAPHQMT
notes: also called RXR; hRXR
- binding result [1]: binds
